Results on 17 molecules are retold here after paper PMC2628434.

For series [1], the target named is T1, LuxR (Vibrio harveyi, UniProt P21308 1-205).
T1 sequence: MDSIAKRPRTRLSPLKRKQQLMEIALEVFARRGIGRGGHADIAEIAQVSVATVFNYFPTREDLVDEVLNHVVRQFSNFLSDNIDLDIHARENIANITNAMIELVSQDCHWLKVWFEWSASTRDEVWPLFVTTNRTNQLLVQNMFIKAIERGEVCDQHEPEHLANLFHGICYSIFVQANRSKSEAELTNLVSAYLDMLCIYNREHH
Put plainly: fluorescence anisotropy.

Series [2] concerns the target T1, LuxR. Kind of series: fluorescence anisotropy. The source holds these as a separate data set. In general terms: Polarisation of emitted light reports the rotation of a fluorescent probe.

Residue numbers refer to the chain shown, from its start. In names and notes the source's numbering stands. Read-outs that look alike come from different tables or passages of the source.

B1: VP0057/8 (dsDNA)
DNA 1: AACATTACTGATAAATTAGATATTTATGGCT
DNA 2: AGCCATAAATATCTAATTTATCAGTAATGTT
As for B1, in the series with LuxR [1], the Kd (in general, the free concentration of one partner at which half of the binding sites on the other are occupied at equilibrium, for simple one-to-one binding) was found to be 47 ± 8 nM.

B2: Consensus (dsDNA)
DNA 1: ACTGATATTGATAAATTTATCAATAATGACT
DNA 2: AGTCATTATTGATAAATTTATCAATATCAGT
As for B2, the Kd with LuxR [1] turned out to be 24 ± 4 nM.

B3: VPA0226/7 (dsDNA)
DNA 1: ACCAAAATTGATAAAATGAATAATTAGATAT
DNA 2: ATATCTAATTATTCATTTTATCAATTTTGGT
For the molecule B3, the Kd with LuxR [1] was found to be 73 ± 12 nM.

B4: VP0944/5 (dsDNA)
DNA 1: TAGAGTTAGTATCAATTTAATCAATAAGATA
DNA 2: TATCTTATTGATTAAATTGATACTAACTCTA
The molecule B4 displayed a Kd in the series with LuxR [1] of 30 ± 7 nM.

B5: Negative control (dsDNA)
DNA 1: ACTGACTGACTGACTGACTGACTGACTGACT
DNA 2: AGTCAGTCAGTCAGTCAGTCAGTCAGTCAGT
Take B5: the affinity with LuxR [2], expressed as Kd, was 136 ± 63 nM.

B6: VPA0649 (dsDNA)
DNA 1: ATTCCTTATTTACCAATTTATAAACTATGAA
DNA 2: TTCATAGTTTATAAATTGGTAAATAAGGAAT
As for B6, the Kd with LuxR [1] was 30 ± 8 nM.

B7: qrr4 A17C (dsDNA)
DNA 1: CATTTTTCTGATAAATGTATTCGTAGCAATG
DNA 2: CATTGCTACGAATACATTTATCAGAAAAATG
In the series with LuxR [1], B7 had a Kd of 38 ± 5 nM.

B8: qrr4 T15C (dsDNA)
DNA 1: B7 DNA 1 with T20C, C22A
DNA 2: B7 DNA 2 with G10T, A12G
In the series with LuxR [1], B8 registered a Kd of 27 ± 4 nM.

B9: qrr4 A6C A17C (dsDNA)
DNA 1: B7 DNA 1 with A11C
DNA 2: B7 DNA 2 with T21G
B9: the affinity in the series with LuxR [1], expressed as Kd, was 112 ± 27 nM.

B10: qrr4 A6C (dsDNA)
DNA 1: B7 DNA 1 with A11C, C22A
DNA 2: B7 DNA 2 with G10T, T21G
B10 returned a Kd with LuxR [1] of 68 ± 11 nM.

B11: qrr4 WT (dsDNA)
DNA 1: B7 DNA 1 with C22A
DNA 2: B7 DNA 2 with G10T
As for B11, the Kd in the series with LuxR [1] was found to be 35 ± 4 nM.

B12: VPA0197/8 (dsDNA)
DNA 1: TAAGGTAAATAATTATTTTAACAATAATTAA
DNA 2: TTAATTATTGTTAAAATAATTATTTACCTTA
Molecule B12 displayed a Kd with LuxR [1] of 68 ± 11 nM.

B13: qrgB WT (dsDNA)
DNA 1: TGTTTATATTGAGTTCACAATCAATACCGATCA
DNA 2: TGATCGGTATTGATTGTGAACTCAATATAAACA
As for B13, in the series with LuxR [1], the Kd turned out to be 27 ± 3 nM.

B14: qrgB A2C A17C (dsDNA)
DNA 1: B13 DNA 1 with A8C, A23C
DNA 2: B13 DNA 2 with T11G, T26G
On to B14, for which the Kd with LuxR [1] was 242 ± 46 nM.

B15: qrgB A6C (dsDNA)
DNA 1: B13 DNA 1 with A12C
DNA 2: B13 DNA 2 with T22G
B15 displayed a Kd with LuxR [1] of 44 ± 5 nM.

B16: qrgB A17C (dsDNA)
DNA 1: B13 DNA 1 with A23C
DNA 2: B13 DNA 2 with T11G
For the molecule B16, the Kd with LuxR [1] stood at 43 ± 6 nM.

B17: qrgB A2C (dsDNA)
DNA 1: B13 DNA 1 with A8C
DNA 2: B13 DNA 2 with T26G
In the series with LuxR [1], B17 showed a Kd of 27 ± 4 nM.
